In article PMC5028032, “Linkage between Fitness of Yeast Cells and Adenylate Kinase Catalysis” (PLoS ONE, 2016):

Key:
purified protein [1] = substrate: Nc1ncnc2c1ncn2[C@@H]1O[C@H](COP(=O)(O)OP(=O)(O)OP(=O)(O)O)[C@@H](O)[C@H]1O; test: purified protein; format: biochemical, Saccharomyces cerevisiae; conditions: 300 μM AMP constant, 2 mM MgCl2, 80 mM KCl, 100 mM Tris pH 7.5, 20°C
purified protein [2] = substrate: Nc1ncnc2c1ncn2[C@@H]1O[C@H](COP(=O)(O)OP(=O)(O)OP(=O)(O)O)[C@@H](O)[C@H]1O; test: purified protein; conditions: 300 μM AMP constant, 2 mM MgCl2, 80 mM KCl, 100 mM Tris pH 7.5, 20°C
[3] = 11 residues STGDMLSAAVK inserted between Lys40 and Ser41

Protein	Km (purified protein [2]) [µM]	kcat (purified protein [2]) [s⁻¹]	kcat/Km (purified protein [2]) [M⁻¹ s⁻¹]	other results
Adk1yeast (Saccharomyces cerevisiae S288C) (protein, full-length wild type, recombinant, 15N-enriched, purified as previously described) SSESIRMVLIGPPGAGKGTQAPNLQERFHAAHLATGDMLRSQIAKGTQLGLEAKKIMDQGGLVSDDIMVNMIKDELTNNPACKNGFILDGFPRTIPQAEKLDQMLKEQGTPLEKAIELKVDDELLVARITGRLIHPASGRSYHKIFNPPKEDMKDDVTGEALVQRSDDNADALKKRLAAYHAQTEPIVDFYKKTGIWAGVDASQPPATVWADILNKLGKD	–	–	–	Km (purified protein [1]): 71 ± 18 µM; kcat (purified protein [1]): 520 ± 32 s⁻¹; kcat/Km (purified protein [1]): 7.29e+06 ± 470000 M⁻¹ s⁻¹
Adkeco (Escherichia coli K-12; INS40STGDMLSAAVK/R36S) (protein) MRIILLGAPGAGKGTQAQFIMEKYGIPQISTGDMLSAAVKSTGDMLSAAVKSGSELGKQAKDIMDAGKLVTDELVIALVKERIAQEDCRNGFLLDGFPRTIPQADAMKEAGINVDYVLEFDVPDELIVDRIVGRRVHAPSGRVYHVKFNPPKVEGKDDVTGEELTTRKDDQEETVRKRLVEYHQMTAPLIGYYSKEAEAGNTKYAKVDGTKPVAEVRADLEKILG	–	–	–	Km (purified protein [2]; [3]): 127 ± 30 µM; kcat (purified protein [2]; [3]): 2 s⁻¹; kcat/Km (purified protein [2]; [3]): 20000 M⁻¹ s⁻¹
Adkeco (Escherichia coli K-12; G56C) (protein) MRIILLGAPGAGKGTQAQFIMEKYGIPQISTGDMLRAAVKSGSELGKQAKDIMDACKLVTDELVIALVKERIAQEDCRNGFLLDGFPRTIPQADAMKEAGINVDYVLEFDVPDELIVDRIVGRRVHAPSGRVYHVKFNPPKVEGKDDVTGEELTTRKDDQEETVRKRLVEYHQMTAPLIGYYSKEAEAGNTKYAKVDGTKPVAEVRADLEKILG	34 ± 2	36	1.04e+06	–
Adkeco (Escherichia coli K-12; R36A) (protein) MRIILLGAPGAGKGTQAQFIMEKYGIPQISTGDMLAAAVKSGSELGKQAKDIMDAGKLVTDELVIALVKERIAQEDCRNGFLLDGFPRTIPQADAMKEAGINVDYVLEFDVPDELIVDRIVGRRVHAPSGRVYHVKFNPPKVEGKDDVTGEELTTRKDDQEETVRKRLVEYHQMTAPLIGYYSKEAEAGNTKYAKVDGTKPVAEVRADLEKILG	193 ± 7	19	100000	–
